Reference: patent US5792742A, “Fibrin-binding peptide fragments of fibronectin” (New York University, priority 1994, dated 1998)
[ ]: non-standard residue; d: D form. pGlu = O=C1CC[C@@H](C(=O)O)N1

Columns and labels:
fibrin [1] = conditions: 0-10 μM competitor, biotinylated Fn 2.3 nM
Procedure: Since the anti-Fn detection system described for the ELISA above could not be used in Fn competition assays employing the intact Fn molecule or the 25.8 kDa proteolytic fragment, purified Fn was biotinylated using water soluble NHS-LC-Biotin (Pierce Chemm. Co.; according to the manufacturer's instructions) and binding to fibrin detected by alkaline phosphatase conjugated streptavidin (diluted 1/500 in FBBT/BSA) for 1 hour at 22° C., followed by the addition of p-nitrophenyl phosphate, as described above. To ensure that the biotinylation of the Fn had not affected its ability to bind to fibrin, fibrin-binding activity was tested by incubating increasing concentrations of biotinylated Fn (10-300 ng/0.1 ml FBB) with the fibrin-coated wells (200 ng) and detected (see FIG. 28A) using alkaline phosphatase-conjugated streptavidin and the reaction developed as described for Direct Elisa.
To compare the relative fibrin-binding affinities of the ^4 F1.^5 F1 recombinant module pair and the 25.9 kDa proteolytic fragment (^1 F1-^5 F1) with that of the native Fn molecule, these purified proteins were competed with biotinylated plasma Fn for binding to fibrin coated wells and the extent of inhibition of binding assessed by incubation with alkaline phosphatase-conjugated streptavidin. […] Biotinylated Fn (100 ng/0.1 ml FBB: 2.3 nM) was combined with increasing concentrations (0-10 μM) of either unlabeled Fn, the 25.9 kDa proteolytic fragment, or the separate ^4 F1.^5 F1, and ^10 F1 recombinant modules and incubated with the fibrin-coated microtiter wells for 1 hour at 22° C. […] Bound biotinylated Fn was quantitated as described above.

fibrin [2] = assay: ELISA: competitive inhibition of fibronectin binding to fibrin by type 1 recombinant modules; conditions: up to 5,000-50,000 molar excess compared to Fn
Procedure: Fibrin-binding activity was also assessed by an ELISA. Fn was reacted with fibrin-coated microtiter plates and bound Fn was determined by incubation with a polyclonal rabbit anti-Fn antiserum followed by alkaline phosphatase-labeled anti-rabbit Ig. […] Thus, on a mole-per-mole basis, assuming complete attachment of all the fibrinogen applied to the polystyrene plate, total proteolytic conversion to fibrin, and accessibility of the binding sites, 0.8 moles of Fn per mole of fibrin were required to achieve maximum binding (assuming a molecular weight of 340 kDa for the fibrin hexamer and 440 kDa for the Fn dimer).
The recombinant Fn modules were used to inhibit the binding of Fn to the fibrin-coated microtiter plates. […] At this saturating concentration, the binding of Fn to fibrin was inhibited by 70%.

fibrin [3] = assay: Fibrin-SEPHAROSE affinity chromatography (binding and elution); parameters: species or system bovine
Procedure: Bovine fibrinogen was cross-linked to CNBr-activated SEPHAROSE™ (5 mg/ml beads) according to the manufacturer's instructions. Coupled fibrinogen was subsequently converted to fibrin by incubation with human thrombin to a final concentration of 5 NIH units/ml and 100 K.I. (kallikrein inhibitory) units/ml of aprotinin (in 0.05M Tris-HCI buffer, pH 7.6, containing 0.1M NaCl and 0.01M EDTA) for three hours, at room temperature (Gold, et al. (1983) Biochemistry 22, 4113-4119).
1.0M NaCl in 0.05M tris buffer, pH 8.0.
The fibrin-binding activity of the proteolytically derived 25.9 kDa fragment of Fn was determined by its ability to bind to a fibrin affinity matrix. […] FBB was used to equilibrate and wash the column. Following warming of the column to 22° C., the column was washed with FBB until absorbance at 280 nm (A280) was less than 0.01, and bound protein eluted with 0.05M Tris-HCl, 0.5M NaCl, 6M urea buffer, pH 7.6.
The module (500 μg/1.0 ml) was incubated for 4 hours (while rotating) at 4° C. in the presence of 1.0 ml fibrin-SEPHAROSE™ (5 mg fibrin/ml SEPHAROSE™ beads) equilibrated in […] Tris-HCl, 0.1M NaCl buffer, pH 7.6.
The 11 KDa peptide (50 μg/0.206 ml) was radiolabeled using the IODO-BEAD method (Pierce Chemical). The peptide was added to one IODO-BEAD in the presence of 100 μCi ^125 I (17.4 Ci/mg, New England Nuclear) and incubated on ice for 10 minutes. […]

fibrin [4] = conditions: Husain et al. 1981; cited from earlier work

| inhibition of biotinylated Fn binding (non-fibrin-binding modules) (fibrin [1]) [%] | inhibition of the binding of Fn to fibrin (non-binding modules) (fibrin [2]) [%] | % of protein that did not bind to fibrin-Sepharose (unbound fraction) (fibrin [3]) [%] | binding to fibrin-Sepharose (fibrin [3]) | Molecule | arginine concentration eluting from solid phase fibrin (fibrin [4]) [mM] |
| --- | --- | --- | --- | --- | --- |
| 15 | < 20 | ~100 | none was present | ^1 F1.^2 F1: recombinant fibronectin module pair, first and second type 1 modules, amino acids 1-106; negative control (protein, N-terminal pyroglutamate; the major species lacks the NH2-terminal Gln-Ala dipeptide and its new N-terminal Gln is also pyroglutamate, recombinant fibronectin module pair, first and second type 1 modules, amino acids 1-106; negative control) QAQQMVQPQSPVAVSQSKPGCYDNGKHYQINQQWERTYLGNALVCTCYGGSRGFNCESKPEAEETCFDKYTGNTYRVGDTYERPKDSMIWDCTCIGAGRGRISCTI | – |
| – | < 20 | – | – | ^1 F1: recombinant first type 1 module of fibronectin, amino acids 1-61 (protein, not fully specified; also: major species lacks N-terminal Gln-Ala, its new N-terminal Gln3 is pyroglutamate) [pGlu]AQQMVQPQSPVAVSQSKPGCYDNGKHYQINQQWERTYLGNALVCTCYGGSRGFNCESKPE | – |
| – | – | – | – | tPA preparation of Husain et al.: high-affinity plasminogen activator preparation of Husain et al. (1981) (protein, UniProt P00750 36-562, looked up) Tissue-type plasminogen …: SYQVICRDEKTQMIYQQHQSWLRPVLRSNRVEYCWCNSGRAQCHSVPVKSCSEPRCFNGGTCQQALYFSDFVCQCPEGFAGKCCEIDTRATCYEDQGISYRGTWSTAESGAECTNWNSSALAQKPYSGRRPDAIRLGLGNHNYCRNPDRDSKPWCYVFKAGKYSSEFCSTPACSEGNSDCYFGNGSAYRGTHSLTESGASCLPWNSMILIGKVYTAQNPSAQALGLGKHNYCRNPDGDAKPWCHVLKNRRLTWEYCDVPSCSTCGLRQYSQPQFRIKGGLFADIASHPWQAAIFAKHRRSPGERFLCGGILISSCWILSAAHCFQERFPPHHLTVILGRTYRVVPGEEEQKFEVEKYIVHKEFDDDTYDNDIALLQLKSDSSRCAQESSVVRTVCLPPADLQLPDWTECELSGYGKHEALSPFYSERLKEAHVRLYPSSRCTSQHLLNRTVTDNMLCAGDTRSGGPQANLHDACQGDSGGPLVCLNDGRMTLVGIISWGLGCGQKDVPGVYTKVTNYLDWIRDNMRP | 0.2 |
